Experimental data from patent US20240360218A1.

Target: human PD-L1 (hPD-L1), full length, expressed on cells (human) (UniProt Q9NZQ7)
Experiment: flow cytometry, AlexaFluor647-labelled antibody (5 ug/mL per p-1191) on monocyte-derived dendritic cells

Chain of human PD-L1 (hPD-L1), full length, expressed on cells (human) (Q9NZQ7 19-290 limits assumed): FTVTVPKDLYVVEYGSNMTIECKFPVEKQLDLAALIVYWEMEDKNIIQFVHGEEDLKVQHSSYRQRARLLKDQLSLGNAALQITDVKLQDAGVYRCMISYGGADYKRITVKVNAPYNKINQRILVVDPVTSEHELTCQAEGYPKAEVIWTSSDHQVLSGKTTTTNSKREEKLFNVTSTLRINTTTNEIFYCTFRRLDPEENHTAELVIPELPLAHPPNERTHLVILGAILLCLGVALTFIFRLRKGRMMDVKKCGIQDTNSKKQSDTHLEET

Isotype hu IgG1 (D107) (antibody)
Geometric Mean : R1-A: 379
